Assay results reported in article PMC8512817, “Domain Analysis and Motif Matcher (DAMM): A Program to Predict Selectivity Determinants in Monosiga brevicollis PDZ Domains Using Human PDZ Data” (Molecules, 2021).

B1: GIRK3 peptide (ESESKV) (peptide)
peptide: ESESKV
B2: B1AR peptide (ASESKV) (peptide)
peptide: ASESKV
B3: BPIX peptide (WDETNL) (peptide)
peptide: WDETNL
B4: GAIP peptide (QSSSEA) (peptide)
peptide: QSSSEA
B5: TYRP1 peptide (PNQSVV) (peptide)
peptide: PNQSVV
B6: A9V7Z4 peptide (EDETAL) (peptide)
peptide: EDETAL
B7: A9UXE1 peptide (QDETAL) (peptide)
peptide: QDETAL
B8: A9UP44 peptide (QSESRL) (peptide)
peptide: QSESRL
B9: HPV16 E6 peptide (SSRTRRETQL) (peptide)
peptide: SSRTRRETQL

Target: T1, DLG1-1 PDZ (DLG1 PDZ1, residues 220-317) (human, UniProt Q12959 220-317)
T1 construct: not shown: His tag, N-terminal, kept
T1 sequence (Q12959 220-317): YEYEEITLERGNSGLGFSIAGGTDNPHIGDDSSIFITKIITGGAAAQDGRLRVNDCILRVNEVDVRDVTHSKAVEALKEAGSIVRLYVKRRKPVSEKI
Assay: fluorescence polarisation
Conditions: both partners purified

Binder	Ki
B1	350 ± 20 µM
B2	44 ± 23 µM
B3	460 ± 140 µM
B4	980 ± 180 µM
B5	46 ± 21 µM
B6	460 ± 190 µM
B7	190 ± 20 µM
B8	39 ± 25 µM
B9	23 ± 5 µM
